What all share (assay): cell-based or functional assay
Experiment [1] deals with CD92 PV1-CaffVHH-L1-iCre-271C-NLS-BGHpA.
Experiment [2] addresses T1, CD374 PV1-RfxCas13d-560C-NLS-BGHpA.
T1 sequence: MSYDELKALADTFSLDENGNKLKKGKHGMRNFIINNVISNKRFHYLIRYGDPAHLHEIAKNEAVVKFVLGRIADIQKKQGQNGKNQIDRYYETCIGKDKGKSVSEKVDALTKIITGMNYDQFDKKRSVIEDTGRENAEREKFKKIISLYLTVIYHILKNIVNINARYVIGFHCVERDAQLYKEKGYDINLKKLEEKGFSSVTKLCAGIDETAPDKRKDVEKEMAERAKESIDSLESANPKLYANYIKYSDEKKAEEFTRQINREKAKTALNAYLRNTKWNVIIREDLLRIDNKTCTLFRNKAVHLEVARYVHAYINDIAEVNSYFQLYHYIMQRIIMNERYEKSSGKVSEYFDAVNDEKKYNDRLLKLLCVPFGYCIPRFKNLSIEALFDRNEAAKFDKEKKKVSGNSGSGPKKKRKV

The target in experiment [3] is T2, CD246 PV1-GAI-L1-RfxCas13d-566C-NLS-BGHpA.
T2 sequence: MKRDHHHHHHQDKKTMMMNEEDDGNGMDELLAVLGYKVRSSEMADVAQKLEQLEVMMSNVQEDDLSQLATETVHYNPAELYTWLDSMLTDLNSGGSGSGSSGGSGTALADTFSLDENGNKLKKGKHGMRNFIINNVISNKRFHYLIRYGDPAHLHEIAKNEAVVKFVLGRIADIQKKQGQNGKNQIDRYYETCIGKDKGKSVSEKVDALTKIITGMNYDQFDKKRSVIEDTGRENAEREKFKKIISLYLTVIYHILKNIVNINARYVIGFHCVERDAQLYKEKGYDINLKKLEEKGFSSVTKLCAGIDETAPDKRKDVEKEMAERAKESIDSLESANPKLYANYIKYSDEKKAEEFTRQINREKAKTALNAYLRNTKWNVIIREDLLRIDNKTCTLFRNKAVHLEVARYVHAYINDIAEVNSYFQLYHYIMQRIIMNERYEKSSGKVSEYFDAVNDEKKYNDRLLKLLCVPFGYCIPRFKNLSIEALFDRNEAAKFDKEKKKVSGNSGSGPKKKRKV

Experiment [4] has as its target T3, CD244 PV1-GAI-L1-RfxCas13d-560C-NLS-BGHpA.
T3 sequence: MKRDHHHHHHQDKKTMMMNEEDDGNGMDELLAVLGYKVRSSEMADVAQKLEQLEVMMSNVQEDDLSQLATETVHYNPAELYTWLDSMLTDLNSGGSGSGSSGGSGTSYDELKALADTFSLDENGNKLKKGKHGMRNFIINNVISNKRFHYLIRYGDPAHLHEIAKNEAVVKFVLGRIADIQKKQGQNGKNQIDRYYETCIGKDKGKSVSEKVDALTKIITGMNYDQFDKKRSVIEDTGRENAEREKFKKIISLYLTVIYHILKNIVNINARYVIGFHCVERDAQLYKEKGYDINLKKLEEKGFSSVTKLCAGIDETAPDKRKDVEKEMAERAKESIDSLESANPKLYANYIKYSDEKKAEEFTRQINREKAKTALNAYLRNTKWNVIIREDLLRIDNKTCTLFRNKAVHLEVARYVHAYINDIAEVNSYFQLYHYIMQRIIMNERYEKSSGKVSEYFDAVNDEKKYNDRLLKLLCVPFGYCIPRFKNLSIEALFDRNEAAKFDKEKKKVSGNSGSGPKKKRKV

The target in experiment [5] is T4, CD400 PV1-GAI-L1-RfxCas13d-264C-NLS-BGHpA.
T4 sequence: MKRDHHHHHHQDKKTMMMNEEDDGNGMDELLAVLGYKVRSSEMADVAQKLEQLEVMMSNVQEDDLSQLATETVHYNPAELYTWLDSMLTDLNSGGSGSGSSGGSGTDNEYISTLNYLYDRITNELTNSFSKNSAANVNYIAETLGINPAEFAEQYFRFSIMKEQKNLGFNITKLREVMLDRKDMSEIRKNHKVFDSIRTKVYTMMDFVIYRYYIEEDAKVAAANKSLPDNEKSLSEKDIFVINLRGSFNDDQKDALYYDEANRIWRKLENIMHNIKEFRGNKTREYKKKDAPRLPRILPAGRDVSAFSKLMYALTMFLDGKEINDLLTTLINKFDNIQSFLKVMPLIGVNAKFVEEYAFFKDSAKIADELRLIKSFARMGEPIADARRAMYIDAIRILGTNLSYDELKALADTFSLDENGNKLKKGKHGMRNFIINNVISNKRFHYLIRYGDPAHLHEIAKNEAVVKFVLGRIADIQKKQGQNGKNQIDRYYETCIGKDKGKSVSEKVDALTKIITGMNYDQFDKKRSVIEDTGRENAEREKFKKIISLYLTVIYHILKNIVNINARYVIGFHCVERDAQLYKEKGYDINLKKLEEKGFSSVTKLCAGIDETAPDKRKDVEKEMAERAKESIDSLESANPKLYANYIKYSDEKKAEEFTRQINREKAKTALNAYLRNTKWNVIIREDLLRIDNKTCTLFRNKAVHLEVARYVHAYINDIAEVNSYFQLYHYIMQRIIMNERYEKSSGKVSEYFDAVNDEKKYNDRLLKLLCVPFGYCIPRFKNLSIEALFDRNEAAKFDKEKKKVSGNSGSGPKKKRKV

Chain of CD92 PV1-CaffVHH-L1-iCre-271C-NLS-BGHpA (chain, as listed by the source): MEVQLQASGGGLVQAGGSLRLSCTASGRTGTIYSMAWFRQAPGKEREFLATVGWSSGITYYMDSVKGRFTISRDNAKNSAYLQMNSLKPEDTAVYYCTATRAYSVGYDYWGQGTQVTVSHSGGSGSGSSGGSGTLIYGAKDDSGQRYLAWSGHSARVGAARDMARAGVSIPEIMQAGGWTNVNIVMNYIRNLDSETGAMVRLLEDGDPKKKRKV

B1: CD91 PV1-iCre-N270-L1-CaffVHH-NLS-BGHpA (protein)
chain: MSNLLTVHQNLPALPVDATSDEVRKNLMDMFRDRQAFSEHTWKMLLSVCRSWAAWCKLNNRKWFPAEPEDVRDYLLYLQARGLAVKTIQQHLGQLNMLHRRSGLPRPSDSNAVSLVMRRIRKENVDAGERAKQALAFERTDFDQVRSLMENSDRCQDIRNLAFLGIAYNTLLRIAEIARIRVKDISRTDGGRMLIHIGRTKTLVSTAGVEKALSLGVTKLVERWISVSGVADDPNNYLFCRVRKNGVAAPSATSQLSTRALEGIFEATHRSGGSGSGSSGGSGTMEVQLQASGGGLVQAGGSLRLSCTASGRTGTIYSMAWFRQAPGKEREFLATVGWSSGITYYMDSVKGRFTISRDNAKNSAYLQMNSLKPEDTAVYYCTATRAYSVGYDYWGQGTQVTVSHPKKKRKV
As for B1, in experiment [1], the Cre reporter expression (share of transfected cells), 25 uM caffeine for 5 hours (% of transfected cells) worked out at 30; the Cre reporter turned on (share of transfected cells), caffeine at least 50 uM, induction at least 5 hours (% transfected cells) is 38; the Cre reporter turned on (share of transfected cells), caffeine induction, 48 hours (% transfected cells) is more than 80.

B2: CD373 PV1-RfxCas13d-N559-NLS-BGHpA (protein)
chain: MIEKKKSFAKGMGVKSTLVSGSKVYMTTFAEGSDARLEKIVEGDSIRSVNEGEAFSAEMADKNAGYKIGNAKFSHPKGYAVVANNPLYTGPVQQDMLGLKETLEKRYFGESADGNDNICIQVIHNILDIEKILAEYITNAAYAVNNISGLDKDIIGFGKFSTVYTYDEFKDPEHHRAAFNNNDKLINAIKAQYDEFDNFLDNPRLGYFGQAFFSKEGRNYIINYGNECYDILALLSGLRHWVVHNNEEESRISRTWLYNLDKNLDNEYISTLNYLYDRITNELTNSFSKNSAANVNYIAETLGINPAEFAEQYFRFSIMKEQKNLGFNITKLREVMLDRKDMSEIRKNHKVFDSIRTKVYTMMDFVIYRYYIEEDAKVAAANKSLPDNEKSLSEKDIFVINLRGSFNDDQKDALYYDEANRIWRKLENIMHNIKEFRGNKTREYKKKDAPRLPRILPAGRDVSAFSKLMYALTMFLDGKEINDLLTTLINKFDNIQSFLKVMPLIGVNAKFVEEYAFFKDSAKIADELRLIKSFARMGEPIADARRAMYIDAIRILGTNLPKKKRKV
Molecule B2 yielded a gRNA induced mCherry knockdown efficiency, no CID domain in experiment [2] of less than 80%.

B3: CD245 PV1-RfxCas13d-N565-L1-GID-NLS-BGHpA (protein)
chain: MIEKKKSFAKGMGVKSTLVSGSKVYMTTFAEGSDARLEKIVEGDSIRSVNEGEAFSAEMADKNAGYKIGNAKFSHPKGYAVVANNPLYTGPVQQDMLGLKETLEKRYFGESADGNDNICIQVIHNILDIEKILAEYITNAAYAVNNISGLDKDIIGFGKFSTVYTYDEFKDPEHHRAAFNNNDKLINAIKAQYDEFDNFLDNPRLGYFGQAFFSKEGRNYIINYGNECYDILALLSGLRHWVVHNNEEESRISRTWLYNLDKNLDNEYISTLNYLYDRITNELTNSFSKNSAANVNYIAETLGINPAEFAEQYFRFSIMKEQKNLGFNITKLREVMLDRKDMSEIRKNHKVFDSIRTKVYTMMDFVIYRYYIEEDAKVAAANKSLPDNEKSLSEKDIFVINLRGSFNDDQKDALYYDEANRIWRKLENIMHNIKEFRGNKTREYKKKDAPRLPRILPAGRDVSAFSKLMYALTMFLDGKEINDLLTTLINKFDNIQSFLKVMPLIGVNAKFVEEYAFFKDSAKIADELRLIKSFARMGEPIADARRAMYIDAIRILGTNLSYDELKSGGSGSGSSGGSGTMAASDEVNLIESRTVVPLNTWVLISNFKVAYNILRRPDGTFNRHLAEYLDRKVTANANPVDGVFSFDVLIDRRINLLSRVYRPAYADQEQPPSILDLEKPVDGDIVPVILFFHGGSFAHSSANSAIYDTLCRRLVGLCKCVVVSVNYRRAPENPYPCAYDDGWIALNWVNSRSWLKSKKDSKVHIFLAGDSSGGNIAHNVALRAGESGIDVLGNILLNPMFGGNERTESEKSLDGKYFVTVRDRDWYWKAFLPEGEDREHPACNPFSPRGKSLEGVSFPKSLVVVAGLDLIRDWQLAYAEGLKKAGQEVKLMHLEKATVGFYLLPNNNHFHNVMDEISAFVNAECPKKKRKV
In experiment [3], B3 displayed a mCherry knockdown with gRNA and gibberellin (drug-induced) of more than 75%; a mCherry knockdown with gRNA, without gibberellin (basal) of 10 to 20%.

B4: CD243 PV1-RfxCas13d-N559-L1-GID-NLS-BGHpA (protein)
chain: MIEKKKSFAKGMGVKSTLVSGSKVYMTTFAEGSDARLEKIVEGDSIRSVNEGEAFSAEMADKNAGYKIGNAKFSHPKGYAVVANNPLYTGPVQQDMLGLKETLEKRYFGESADGNDNICIQVIHNILDIEKILAEYITNAAYAVNNISGLDKDIIGFGKFSTVYTYDEFKDPEHHRAAFNNNDKLINAIKAQYDEFDNFLDNPRLGYFGQAFFSKEGRNYIINYGNECYDILALLSGLRHWVVHNNEEESRISRTWLYNLDKNLDNEYISTLNYLYDRITNELTNSFSKNSAANVNYIAETLGINPAEFAEQYFRFSIMKEQKNLGFNITKLREVMLDRKDMSEIRKNHKVFDSIRTKVYTMMDFVIYRYYIEEDAKVAAANKSLPDNEKSLSEKDIFVINLRGSFNDDQKDALYYDEANRIWRKLENIMHNIKEFRGNKTREYKKKDAPRLPRILPAGRDVSAFSKLMYALTMFLDGKEINDLLTTLINKFDNIQSFLKVMPLIGVNAKFVEEYAFFKDSAKIADELRLIKSFARMGEPIADARRAMYIDAIRILGTNLSGGSGSGSSGGSGTMAASDEVNLIESRTVVPLNTWVLISNFKVAYNILRRPDGTFNRHLAEYLDRKVTANANPVDGVFSFDVLIDRRINLLSRVYRPAYADQEQPPSILDLEKPVDGDIVPVILFFHGGSFAHSSANSAIYDTLCRRLVGLCKCVVVSVNYRRAPENPYPCAYDDGWIALNWVNSRSWLKSKKDSKVHIFLAGDSSGGNIAHNVALRAGESGIDVLGNILLNPMFGGNERTESEKSLDGKYFVTVRDRDWYWKAFLPEGEDREHPACNPFSPRGKSLEGVSFPKSLVVVAGLDLIRDWQLAYAEGLKKAGQEVKLMHLEKATVGFYLLPNNNHFHNVMDEISAFVNAECPKKKRKV
In experiment [4], B4 displayed a mCherry knockdown with gRNA and gibberellin (drug-induced) of more than 75%; a mCherry knockdown with gRNA, without gibberellin (basal) of 10 to 20%.

B5: CD399 PV1-RfxCas13d-N263-L1-GID-NLS-BGHpA (protein)
chain: MIEKKKSFAKGMGVKSTLVSGSKVYMTTFAEGSDARLEKIVEGDSIRSVNEGEAFSAEMADKNAGYKIGNAKFSHPKGYAVVANNPLYTGPVQQDMLGLKETLEKRYFGESADGNDNICIQVIHNILDIEKILAEYITNAAYAVNNISGLDKDIIGFGKFSTVYTYDEFKDPEHHRAAFNNNDKLINAIKAQYDEFDNFLDNPRLGYFGQAFFSKEGRNYIINYGNECYDILALLSGLRHWVVHNNEEESRISRTWLYNLDKNLSGGSGSGSSGGSGTMAASDEVNLIESRTVVPLNTWVLISNFKVAYNILRRPDGTFNRHLAEYLDRKVTANANPVDGVFSFDVLIDRRINLLSRVYRPAYADQEQPPSILDLEKPVDGDIVPVILFFHGGSFAHSSANSAIYDTLCRRLVGLCKCVVVSVNYRRAPENPYPCAYDDGWIALNWVNSRSWLKSKKDSKVHIFLAGDSSGGNIAHNVALRAGESGIDVLGNILLNPMFGGNERTESEKSLDGKYFVTVRDRDWYWKAFLPEGEDREHPACNPFSPRGKSLEGVSFPKSLVVVAGLDLIRDWQLAYAEGLKKAGQEVKLMHLEKATVGFYLLPNNNHFHNVMDEISAFVNAECPKKKRKV
As for B5, in experiment [5], the mCherry knockdown efficiency with GIB CID domains is more than 60%.

(Values after US20230279406A1.)
